Results published in the supplement of paper PMC12764529.
± gives the half width of the 95% confidence interval.

How the values were obtained:
[1] = folding stability dG unfold (combined trypsin and chymotrypsin); higher = more stable
Summary of the method: (§1)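 Designed mini-proteins with no cysteine and under 80 residues were kept only if AlphaFold2 dimer inter-PAE was above 15. In a PA-tagged cDNA display construct, they were digested with trypsin and chymotrypsin and then sequenced. K50 was inferred by Bayesian fitting of counts, and unfolding free energy was derived per protease or combined against a sequence-predicted unfolded-state K50 and a shared folded-state K50.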

[2] = folding stability dG unfold from trypsin proteolysis; higher = more stable
Protocol: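 Folding stability of de novo designed mini-proteins (<80 aa, no Cys; designed by TrROS, TrMRF, ProteinMPNN and the joint model) was measured by cDNA display proteolysis with trypsin and chymotrypsin. Each protease was used at 11 concentrations in a threefold dilution series plus a no-protease condition. K50 was inferred by Bayesian fitting of sequencing counts, and dG unfold was derived against a sequence-predicted unfolded-state K50 (Tsuboyama et al. method). Sequences shown include variable-length N-terminal GS-type padding (SAGGSAGG...) inside a display construct carrying a PA tag. Rows were kept only if the AF2 dimer inter-PAE was >15, to exclude likely homo-oligomers.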

[3] = folding stability dG unfold from chymotrypsin proteolysis; higher = more stable
Summary of the method: as §1

| Sequence | folding stability dG unfold [1] [kcal/mol] | folding stability dG unfold [2] [kcal/mol] | folding stability dG unfold [3] [kcal/mol] |
| --- | --- | --- | --- |
| AAPEGAVVTFDDKEITVAPDETLYLVNGKLYTKSEIPAVLKQLSPETEYTELTVAGDTGEVETETKHIYRPS [r1_304_JUSTAS] | 1.25 ± 0.14 | 0.867 ± 0.097 | 1.51 ± 0.12 |
| ADFRVTEESPEGVVTQTTTVALPDGTSRTLTYSYSKDASLTSVTVSYTPDSVTTTTTPVTPVPPGSPELAGS [r1_53_JUSTAS] | 0.0981 ± 0.13 | -0.411 ± 0.17 | 0.24 ± 0.19 |
| ARELPVEEIREAVREFLRKHGFRVVSEEVVELPDGSVLVFVEAEPEDKSTRYRLVITRPVDGSVRLVIEPVS [r1_460_TrMRF] | 3.283 ± 0.028 | 2.66 ± 0.044 | 3.588 ± 0.011 |
| AVTVTVEPVGDALVVTVDLPRADGSPVRVVALFDPDGTVARVLVARSDPGPPRFVEVPAAPASDPVLLAAGS [r1_301_TrMRF] | 0.993 ± 0.13 | 0.23 ± 0.2 | 1.38 ± 0.14 |
| DDWVTLPVEIWIPVRNPDGKPLTPEQVKETANSIRNELARNHGIDVEVDVKVEPVGPNGYYRINATVTIRPS [r1_231_TrROS] | 2.72 ± 0.14 | 2.23 ± 0.1 | 2.98 ± 0.055 |
| DIDIETHPNGTILIKVPRNLLDEIKDILKENGYNVKITGIDPDWGYIRFPLKPVPPPPPKPSPEDAEEQGDS [r1_78_TrROS] | 1.89 ± 0.14 | 1.76 ± 0.082 | 2.14 ± 0.041 |
| DMEPEPFTIELPNVKIEVQVYRTPNKLSVNAPIEFPNGKNLTISFKYEPTPDGIKLEISIMIPKKAIEKLLS [r1_153_TrROS] | 3.1 ± 0.3 | 2.33 ± 0.097 | 3.44 ± 0.1 |
| DRIEIDVEMYDGYFYKIEIRWPGNGEPRELMFPGSLSEAKDFAEDLIQEQHPGAPVDEIDVEPVPMPPGDFS [r1_80_TrROS] | 1.69 ± 0.19 | 0.683 ± 0.2 | 2.01 ± 0.05 |
| DYKIKIPVARFPDGYWYIRAEIEDPDGETHEYEYPIPMPPGDTFDIDLPEDEPYKIKKIWIYHNGKPQPITS [r1_70_TrROS] | 1.16 ± 0.16 | 0.922 ± 0.11 | 1.36 ± 0.15 |
| EEIIEKLKEEGYEIVSVSIKEVNGKKKIFIAVRRKDKPEYLLVEIDLENKEVKIKKVKKFPKGESIEDILSS [r1_383_TrROS_Hall] | 3.56 ± 0.27 | 2.95 ± 0.2 | 3.98 ± 0.23 |
| EKALEAARELARKLAEELGVEVEVRVKKVSVLNENGELIAEVEVEITVRPLPPPVVEEEEVEEEEVEFEEES [r1_318_TrROS_Hall] | 1.99 ± 0.23 | 1.82 ± 0.1 | 2.18 ± 0.17 |
| FEELRNLPGLSLTPLAEEGEVRVYRLSLPPSVLAARGLPGVTVTVTVFPDGSYTVLPDDVPALEAAGLVVES [r1_256_JUSTAS] | 2.03 ± 0.045 | 1.05 ± 0.02 | 2.43 ± 0.037 |
| FRFTIPLPDGKKIIIDYRPMPDGNYMFDVKLQLPNGKERTIPIMVPREEFPGMPMEEMAETMVKEALKKLKS [r1_92_TrROS] | 3.3 ± 0.26 | 2.63 ± 0.15 | 3.4 ± 0.13 |
| FTMDEMKELADNIADNLAKEDGYKIKSVNIDATIPIPVYMKVRPDPNGEPRWEMHWMPIKVKINVEIKPPNS [r1_91_TrROS] | 2.55 ± 0.36 | 2.02 ± 0.18 | 2.55 ± 0.09 |
| GEERTFSLWVKTKSPQEARQLQEKIKDILRGPGYEVKIDDVEVSPNGWMKVNITMRPGMPQDRLRDALRKIS [r1_485_TrROS] | 4.99 ± 0.07 | 3.93 ± 0.082 | 5.24 ± 0.06 |
| GMMPEVKEYEVVVEVSLSDPSFASMTPEELAERAVAEVAAKPDFDPVEVEILSVKELPDGTYVVKVRITVRS [r1_484_JUSTAS] | 3.91 ± 0.14 | 4.48 ± 0.2 | 3.15 ± 0.12 |
| GPSPVSVSTSTSTSLSTVGNTPVLVTTTTTTTTTLSPDPTDPSVTTTTTTTTTTTTVYDPANGKPLSTTTSS [r1_406_JUSTAS] | 1.83 ± 0.14 | 1.83 ± 0.079 | 1.86 ± 0.059 |
| GRMYIVKIEIKVKRRDPEEGETRERKLEVHVIFPPNDPDALEKADEIARNLAEEDGITDVKVKIYPIRLPDS [r1_346_TrROS] | 1.74 ± 0.22 | 1.48 ± 0.051 | 1.89 ± 0.073 |
| GSLVTVFPFPENGKTVEVVVPESVGTPLSEAEIRALLLEAHPDVPAAALPAEEAAEILQATPGVEAARVVAS [r1_463_JUSTAS] | -0.302 ± 0.35 | -0.877 ± 0.7 | -0.0131 ± 0.19 |
| ITITYDKETGELTVTLSVEIEREDGYLVRVSVTIRINPNGEIKIEKKIEVIKLPPAEVKLTDEELEKLKKES [r1_4_TrROS_Hall] | 2.49 ± 0.27 | 2.41 ± 0.1 | 2.51 ± 0.11 |
| KAYKVVFPLPKEGRTVVVYVPEEHGKPLTEEEIAALLREAYPDKEPADLPAEELAKILAAKEGVVRVEVEGS [r1_463_TrMRF] | 1 ± 0.13 | 0.866 ± 0.089 | 0.995 ± 0.12 |
| KETVTLEFELEDGSKVRVEVDLETKEVKVEVEKPPAPPPPPVIVLPPGLTEEERERLIKELEKKGIKVVVLS [r1_242_TrROS_Hall] | 2.28 ± 0.13 | 2.25 ± 0.13 | 2.21 ± 0.09 |

| Sequence | folding stability dG unfold [1] [kcal/mol] | folding stability dG unfold [2] [kcal/mol] | folding stability dG unfold [3] [kcal/mol] |
| --- | --- | --- | --- |
| SAGEIAEALGFEVVDVSIEEVDGKLRITVVVRFKDNDLVITAEAEVTEVDGELKIEIKITIEPLPPEDLSAG [r5_516_TrROS_Hall] |  | 2.85 ± 0.26 | 3.66 ± 0.37 |
| SAGGMVVVKIRIEREVDGKVEEVELVLEVELDEDGKVSAEELKALLKELLPENVKITEIEVVEPGEEPSAGG [r13_504_TrROS_Hall] |  | 4.76 ± 0.69 | 3.39 ± 0.2 |
| SAGGSAGGSAGGGMGSSVTITTEEDPTDETETTKKTKVTLNLPNPEEAEALKKKIEEKESAGGSAGGSAGGS [r10_1180_JUSTAS] |  | -0.47 ± 0.18 | -0.807 ± 0.68 |
| SAGGSAGGSAGGSKKVIEVPAKDLTPEQLKKLAKEGETIEITFPNGEKKEIPAEKLKPKSAGGSAGGSAGGS [r4_382_TrROS_Hall] |  | 0.115 ± 0.15 | -0.998 ± 0.9 |
| SAGGSAGGSAGMTITVPITDLEKLKTMPELPVEVIEEGEGPPTATLDASNPELAKQAYSSSAGGSAGGSAGG [r11_65_JUSTAS] |  | -0.0977 ± 0.18 | 0.117 ± 0.49 |
| SAGGSAGGSEEVEIRIVLPDMSEEELKAALEALLSEPGAEIEIVRVERREDGSLVVTVKVRVPSAGGSAGGS [r12_348_TrROS_Hall] |  | 4.83 ± 0.43 | 2.9 ± 0.12 |
| SAMEVTVTPLPDGTTRVTLPDGVEITHPAPGTGEPVLVEVTEVPGTGTYRITIRSPAGGEELRELLVPVSAG [r14_975_JUSTAS] | 0.443 ± 0.091 | 0.986 ± 0.03 |  |
| SAMLTTLETTTTTSDSLTVTTSLSLLPDGSLVTTTTVIDTSGNVLSSTTTVEPGPPPVTPENIALMVRLSAG [r14_171_JUSTAS] | 0.125 ± 0.29 | 0.298 ± 0.12 |  |
| SAMTIEITVPPGMSVEELAKLLKELFPEVEEIKIEVEYDEETKELKVRIEIRPKPELSEEEKEALEKLKSAG [r14_645_TrROS_Hall] |  | 2.9 ± 0.28 | 3.99 ± 0.47 |
| SLEEFLASEEAKKRLEALKPPPPVETIRIKVKAKSVEEALKAIRELFPGVEVVKIKEVRPDGYLEVEVRRSA [r9_723_TrROS_Hall] |  | 3.89 ± 0.41 | 2.37 ± 0.36 |
| SLEIAKELGFPIKRFEPTEMDPDNGRQKWEAYIPMPNRTVRVDIDIRYEPDPNGKRQPKIQIDSIEFMPPSA [r9_613_TrROS] | -0.242 ± 0.23 | 0.392 ± 0.12 |  |
| SMNVKPFSSTISNPAVTVTTPITQPSSGEGTATLTIHRPESVTTTTHPVTDLQALIDSHAAGGVSLTGTSSA [r9_384_JUSTAS] | < -1 | -0.377 ± 0.095 |  |
| SMPISAEELAELFPGVVEIKPEPDSTVITAKDPNGTNPVFTLSPAGTVTVTTYTPGSGTTTTTTIPTALLSA [r9_427_JUSTAS] | 0.159 ± 0.071 | 0.681 ± 0.025 |  |
| SMSEELKKEIEAFLKEKGASIDFKTDPSTGKITITVTIPGKGTTTTITLTFPPDNPEEIKEKIKELIEKGSA [r9_42_JUSTAS] | > 6 | 4.88 ± 0.6 |  |
| SMSPSETETTTYTRTIPFPKSNPEQAKAEAEKEVRAELEAKGLKIDIPITIEWENDTVTVTIPISVTPPLSA [r9_889_JUSTAS] | -0.144 ± 0.29 | 0.594 ± 0.13 |  |
| SMTITHKIPPDDPEKAEEEIKEKIEKETGLKVEKVEVPEGDGATLVVTIDKEKPVVTAEVVPLLPDGTPVSA [r9_173_JUSTAS] | 0.191 ± 0.35 | 0.85 ± 0.17 |  |
| SSFMEQARNMAEELLQKKGLPPKPGEKVEIPIPYPNGMQIRITINPEEKKIDVEFYNDNQPVEHTFKIKKSA [r9_426_TrROS] | -0.821 ± 0.76 | 0.267 ± 0.33 |  |
| SSMSTPSSSTLTVELPDREVTASATTTTLPDGTTTTTTTFPDGSTITYDPATGTTTIYDPATGAPLATTGSA [r9_970_JUSTAS] | 0.344 ± 0.047 | 0.959 ± 0.048 |  |
| SVPPFLNLPEAAKALAKAKPGPPVPRLTFPVTTDDPEEALEEILKQYPHLHPDKIKRVEVGDGYLTVEFGSA [r9_723_TrMRF] | < -1 | -0.936 ± 0.34 |  |
| SVVNFPVSLAATRDGNPVPIEEVLERVAKEIGGPDVKPEIKPGPGDTLVATVKLPDGTTATASDSSSVTDAS [r1_168_JUSTAS] | < -1 | -0.293 ± 0.11 |  |
| SVVTLEQVAELVEKGVELVAVLPDNRLLFYDPEREEPIELEVEEVPPPKPIFIEGGVESLEEALKFLEAESA [r9_649_TrMRF] | -0.381 ± 0.37 | 0.456 ± 0.027 |  |
